Here are results for 20 sequences from the DeepSol protein solubility set.

The data set is described as follows: soluble on expression in E. coli; label from the status in PepcDB or PDB records.
Regarding “MNKTYDFKSITENFNLEGELKTSDSHVCGHINDTFIINCEGENGEEIKYVLQRVNSDIFKNPEQLMENIENVTSHIKNKIIEENGDPLRETLNIVKTKEGKNFYKCKEGNYWRIFNFIHDASTYQIVEKPEHLYTAGKALGKFQKQLSDFNVDMLYDTIPDFHNTEKRFEAFMEAVREDKKGRAKDVKEEIDFVINRAEDTKVLVNMIKENKLPLRVTHNDTKFNNIMIDDETGEGIAVIDLDTVMPGLSLYDFGDSIRSGATTALEDEVDLSKVNFDLNLYEHFTKGFLESAGDAFTKEEIEYLPFAAKLMTFECGMRFLMDYLNGDVYFKIHRENHNLDRARNQFKLVSDMEKEMDNMKKIVYSYILEHHHHHH”, the “soluble on expression in E. coli” value is listed as “not soluble”. “MNKVIKMLVVTLAFLLVLAGCSGNSNKQSSDNKDKETTSIKHAMGTTEIKGKPKRVVTLYQGATDVAVSLGVKPVGAVESWTQKPKFEYIKNDLKDTKIVGQEPAPNLEEISKLKPDLIVASKVRNEKVYDQLSKIAPTVSTDTVFKFKDTTKLMGKALGKEKEAEDLLKKYDDKVAAFQKDAKAKYKDAWPLKASVVNFRADHTRIYAGGYAGEILNDLGFKRNKDLQKQVDNGKDIIQLTSKESIPLMNADHIFVVKSDPNAKDAALVKKTESEWTSSKEWKNLDAVKNNQVSDDLDEITWNLAGGYKSSLKLIDDLYEKLNIEKQSK”: the “soluble on expression in E. coli” value is given as “not soluble”. For “MNKVLINDTTLRDGEQAAGVVFTLEEKVAIAKFLDTIGVPELEVGIPAMGEEEMRAICAISNLGLKANLLAWNRAVISDIKASVACGMERVHIAIPVSGIQIAAKFHGQWRVSLQRLKDCISFAVDQGLWVAVGGEDSSRADENFLLDVALYAQEWGASRFRFCDTVGVLDPFTTYGKVKLLVSALTIPVEVHTHNDFGMATANALAGIKAGASSVNTTVIGLGERAGNAALEEVVMAIKRIYGVDMGIDTPRLLELSQLVAAASGANVPPWKAIVGENTFAHESGIHAHGVLQNPDTYEPFAPEEVGWERRLVVGKHSGRHSVSNLLEQHGLEHHHHHH”, the “soluble on expression in E. coli” value is recorded as “soluble”.

As for “MNKYQAVIIGFGKAGKTLAVTLAKAGWRVALIEQSNAMYGGTCINIGCIPTKTLVHDAQQHTDFVRAIQRKNEVVNFLRNKNFHNLADMPNIDVIDGQAEFINNHSLRVHRPEGNLEIHGEKIFINTGAQTVVPPIPGITTTPGVYDSTGLLNLKELPGHLGILGGGYIGVEFASMFANFGSKVTILEAASLFLPREDRDIADNIATILRDQGVDIILNAHVERISHHENQVQVHSEHAQLAVDALLIASGRQPATASLHPENAGIAVNERGAIVVDKRLHTTADNIWAMGDVTGGLQFTYISLDDYRIVRDELLGEGKRSTDDRKNVPYSVFMTPPLSRVGMTEEQARESGADIQVVTLPVAAIPRARVMNDTRGVLKAIVDNKTQRMLGASLLCVDSHEMINIVKMVMDAGLPYSILRDQIFTHPSMSESLNDLFSLVK”, the “soluble on expression in E. coli” value is given as “soluble”.

Consider “MNLDYLKETYHLTKTESQILYYLDQQSTNAADLSIREVAKHCFSSPSSIIRLAKKLNLSGYNELIYKLKEAHFSQPIPFETAPSFETTNEFCRLLAKHKSHLFVILGHDFSRHLAAYISEVFNFHGIPSITTAYTHSINSQNNQNFLFIILSHSGEEKYLKETALLAKEKKHPIISFVGAKNSTLGRLADLVFSTDSYSPFSTSVAQPQMFFGQTLITFEALICAYLNHEDSIPISHKNK”, for which the “soluble on expression in E. coli” value was “not soluble”.

As to “MNLHICEVTAKNWRSVVALDVAKDQQQFIESNAFSLAESLYEGNGTSVGLYDSETLVGYAMYGWYSVKHKSVWLDRFMIDQQYQGKGYAKRFLRLLIQFLQEKFECKIIYLSLHPDNKLAMGLYESFGFRLNGDIDDEGPVVGVVMELLIDENTSL”, the “soluble on expression in E. coli” value is recorded as “not soluble”. Take “MNLKREQEFVSQYHFDARNFEWENENGAPETKVDVNFQLLQHDQENQVTSLIVILSFMIVFDKFVISGTISQVNHIDGRIVNEPSELNQEEVETLARPCLNMLNRLTYEVTEIALDLPGINLEF”: the “soluble on expression in E. coli” value is given as “soluble”. Turning to “MNLNIETSRRIELIDITSEVKEEVRISGVREGVCIISTRHTTAGIIVNENENGLREDILNMLERLVPQGAGYRHDRIDNNADSHLKAILLGSSEALPIVKGELELGTWQSIFFAEMDGPRNRAVNLTILKTELEHHHHHH”, the “soluble on expression in E. coli” value is “soluble”.

As to “MNMIPKVAMFGTGYVGLVSGVCIADFGINVICVDVDKEKIDGLNNGKIPIYEPGLDVFLERNIKAGRIQFTTDAKMAIEESNVLFIAVGTPPKENGEADMQYVYAVAETIGQYMNGYKVIVDKSTVPVGTGQVVKKIIADKLKERGVEYSFDVVSNPEFLREGKALYDFTHPDRVVIGVESEEVAEIMKKVYRPLYINETPFVITNIETAEMIKYASNAFLATKITFINEIANLCEKVGANVQQVAMAMGRDGRIGPKFLHAGPGFGGSCFPKDTKALVQIAEKHGVQMSVVNAVIEANERQKKMVAEKLEKFAGDLKGKTIGILGLAFKPETDDVREAPALTIIADLIERGASIRAYDPQAMEEAKKALRKYADNITYCKHAYDTAESVDALVIVTEWHEFRNMDLTLLKKIMRGNIFYDARNIYSRKDIEEKGFVFIGTGV”, the “soluble on expression in E. coli” value is listed as “not soluble”. For the sequence “MNMTDDLGGNILLLSGHPGSGKSTIAEALANLPGVPKVHFHSDDLWGYIKHGRIDPWLPQSHQQNRMIMQIAADVAGRYAKEGYFVILDGVVRPDWLPAFTALARPLHYIVLRTTAAEAIERCLDRGGDSLSDPLVVADLHSQFADLGAFEHHVLPVSGKDTDQALQSAINALQSGRFRIDASLEHHHHHH”, the “soluble on expression in E. coli” value is reported as “soluble”. Consider “MNNAALRHWKQQQRARLRELRQQVPVTQRMLWSDAITAVLTQGFPFLENQRIGFYWPHQGEYDPIPAMTFLRTRGATLALPEVISKDEPLRFIEWWPEAPMKKDIYGIPFPDNTRGITVDSIIIPLLGFDEQGYRLGYGSGYFDRTLAAMSPRPLAIGVAFEILRLPTIHPQQHDIPMDYIVTEQSILHRTDTGLVPLTAPIVQSETALEHHHHHH”, for which the “soluble on expression in E. coli” value is reported as “soluble”. As for “MNNETTTLISLKEAMKRVDHKLQALETQFKELDFTKDNLMQKFEHHSKALASQAAQDEMWTAVRALQLTSMELNILYSYVIEVLICLHTRVLEKLPDLVRGLPTLASVLRRKVKNKRVRVVWESILEECGLQEGDITALCTFFIARGNKAEHYTAKVRQMYIRDVTFLITNMVKNQALQDSLLRAVQVIEKGKAVRTPEKQKSSLEELIPSVKN”, the “soluble on expression in E. coli” value is recorded as “soluble”. Turning to “MNNIRQLTKDEYPKAIELSWQVFTITGKEDFNNEGLEFFKSFIYNKKCINEIIFYGSFDNEALTGILGIKSNGKHISLFFIKPEYHRHGLGKKLFHYASTLHPSIETTVNSSTYAIPFYRSLGFAVVGEKQNYHGLCSTPMRRYHAVFVQKNKYTLRTWQTEDAHSLVQELNNKKIWDNCRNVFPHPYRLEHAETFIDLIQKKEGIHDFCIEVNGKAVGNIGFTPGTDVECFNAEVGYVIGEKYWNQGIVTDALQEAIYHYFTYTNTIRIFALVFEHNLPSMRVLEKAGFNKVGIMTKSIFKNGHFTNAHLFELLKNVLEHHHHHH”, the “soluble on expression in E. coli” value is reported as “not soluble”. For “MNNISIPFEKLGNAKKVGIQLPDGLKRRAIEIAQLIEDRGYDVVISGETSFGACDIDLSILEVVDVLLHFAHTPILKDERVVYVPYFIEYNPKIDLKVDERRIALIATAQYVHKLPEVAEWLRGKGYEVEIGSPRGRVVYPGQVLGCNYSVLRGSNADAVVFIGDGLFHATGAAMYTKKKVYAYNPLSGELKEVDARNFEKKRYLEVSKCVGKSKAGILVSSKPGQRRLRLAEKLKKIGRENGLFCSIIYLNNVRAEELYNLPFDFYVNTACPRIAYDDGARFEKPVISPQEFELLLGLRESIAMDEIEF”, the “soluble on expression in E. coli” value is “not soluble”. For the sequence “MNNLALQSLTESIAIKYFGKAFKHEVYYNKRLRTTGGRYILSSHNIEINPKQYEMFGEKAVIDIIKHELCHYFLHLAGEGYQHRDKAFKSLSAKVGAPRFCTPTESYQDRANYKYRCIYCEQEFIRIKRVNLEKMRCGRCGGILKLLQTRKLEHHHHHH”, the “soluble on expression in E. coli” value is reported as “not soluble”. Turning to “MNNQSQVKVGPPLWLLAELTYDCPLHCPYCSNPTELGDTKDELNTEQWLDVLTQARAMGAVQLGFSGGEPLLRKDLEQMVKHSRELGFYTNLITSGIGLTEKRIAKLKVAGLDHIQISFQGADPEMNDIIAGRGNAFEQKFKMAQSVKAQGYPMVLNFVISKQNISQVEDIMRLSCQLNADYVELATAQYYGWAYDNRDHLLPSQQQLIDAEKIVNEFRDKQQGKGPQFIFVTPDYFEVRPKACMNGWGSTFLTIAPDGSALPCHSAKMLPLKFPNVKDKSISDIWQQDFSFNRFRGDSWMPQPCQSCDEKEKDFGGCRCQAFMMTGDMDKTDPVCSKSPDHHLIQEAIERAKHPKNPLLERVNKRSIKDADIVQIKL”, the “soluble on expression in E. coli” value was “not soluble”. Regarding “MNNVLLEVKDLETSLKINNEWLATVENISFELSKGEVLGIVGESGCGKSILSKSIIKLLPEKISKLSNGEVIFDGKRIDTLNEKQLLDIRGNDIAMIFQEPMTALNPVFTIKNQLVESIKSHKKISKKEANKLAKDLLKKVGIARQDEILNSYPHQLSGGMRQRVMIAMAISCSPKLLIADEPTTALDVTIQAQILDLLKELQKETQMAIMMITHDLSVVAEFCDKVLVMYAGQIVEFGGIKEILHNPKHPYTQKLLSTIPKLKEEQKRLETIEGIVPSIQAFHVNKCRFANRCNKKLDICNNQSPKMHVCEDVIVRCHLYKNEYKEI”, the “soluble on expression in E. coli” value is given as “not soluble”.

As for “MNPFIVADAESCIGCRSCEVACVVAHHEGQFPDKPEYFTPRVKVFKGDQCATAVFCHHCEDAPCASTCPNGAIVELNNRVQVIQEKCIGCKTCMIACPFGMMTVVTETVQPASHRLADVYRRTEAQKCDLCLDQPDGPACIKTCPTQALTLVDQQYLLHQQQQKRQHMALNEHNGRLFSRAVVQAASASSNKSIRDATPVNLLQRPRAPRLEPKKIPLAERKTGFAEIYLPFTESQIHEQAERCLECGDKTICQWTCPLHNAIPKWISLAHQGRIHEAAELSHQTSSLPEVCGRVCPQDRLCEQSCTLNDHDGAVTIGQIERHITETALATGWRPDLSQVKPSGKRVAIIGAGPAGLGCADILVRNGITPVVFDRYPEIGGLLTFGIPAFKLEKSVMTRRREIFTEMGVEFCLNTEIGRDITMENLLHDFDALFLGVGTYRSMRSGLENEDAQGVYDALPFLIGNTQHLMGYTANGAHPYVSMQDQRVVVLGGGDTAMDCVRTSLRQGASRVVCAYRRDEKNMPGSKREVKNAREEGAEFMFNLQPMSIVVDESGQVTGIKMVRTEMGQADAQGRRQALPITGSEHLIPADAVIMAFGFSPHRMSWLAEHNVVLDKHGRVVAPTISGYPYQTSNPKIFAGGDIVRGADLIVTAIAEGRKAAESIAYYLNVL”, the “soluble on expression in E. coli” value is listed as “not soluble”. With “MNPFTYSKPTDITAAVNLSGPATRFIAGGTNLLDLMKENVATPEHLIDITGLPLREVSETASGGLMIGALVSNADLAYHPLIEARYPLLSKAVLAGASPQLRNMASTGGNLLQRTRCYYFYDTGVPCNKREPGSGCPAREGLNRIHAILGASDECVATHPSDMCVALAALEAVVHVEGRAGRRTIEFADFHRLPGDAPQRDNQLADDELIIAVELPAQGFASHNAYLKIRDRASYAFALISVAAAIDLDGDVVRDVRLALGGVAHKPWRDKAVEALLIGKPVTREHFAAAADAMLEDAKPLEHNGFKVRLARRAIIRALSDAATGGSAL”, the “soluble on expression in E. coli” value is “not soluble”. Turning to “MNPIASNSAVTLHFTIKLKDGSVADSTHNQGKPAKLVMGDGSLSPNFEQCLLGMLPGEKKSVALAAQDAFGAPNPDHVHYMDRSKFLGGDLQLEVGTIMAFSGPDGMEIPGIITEIAGDSVTVDFNHPLAGQDITFDVEILSVE”, the “soluble on expression in E. coli” value is reported as “not soluble”.
